These results are taken from patent publication US20030157712A1 (VANDERBILT UNIVERSITY, published 2003).

The target in the experiment is T1, endogenous EphB2 receptor of HRMEC (human, UniProt P29323 19-1055).
T1 construct: whole, on cells; also called Nuk
T1 sequence (looked up): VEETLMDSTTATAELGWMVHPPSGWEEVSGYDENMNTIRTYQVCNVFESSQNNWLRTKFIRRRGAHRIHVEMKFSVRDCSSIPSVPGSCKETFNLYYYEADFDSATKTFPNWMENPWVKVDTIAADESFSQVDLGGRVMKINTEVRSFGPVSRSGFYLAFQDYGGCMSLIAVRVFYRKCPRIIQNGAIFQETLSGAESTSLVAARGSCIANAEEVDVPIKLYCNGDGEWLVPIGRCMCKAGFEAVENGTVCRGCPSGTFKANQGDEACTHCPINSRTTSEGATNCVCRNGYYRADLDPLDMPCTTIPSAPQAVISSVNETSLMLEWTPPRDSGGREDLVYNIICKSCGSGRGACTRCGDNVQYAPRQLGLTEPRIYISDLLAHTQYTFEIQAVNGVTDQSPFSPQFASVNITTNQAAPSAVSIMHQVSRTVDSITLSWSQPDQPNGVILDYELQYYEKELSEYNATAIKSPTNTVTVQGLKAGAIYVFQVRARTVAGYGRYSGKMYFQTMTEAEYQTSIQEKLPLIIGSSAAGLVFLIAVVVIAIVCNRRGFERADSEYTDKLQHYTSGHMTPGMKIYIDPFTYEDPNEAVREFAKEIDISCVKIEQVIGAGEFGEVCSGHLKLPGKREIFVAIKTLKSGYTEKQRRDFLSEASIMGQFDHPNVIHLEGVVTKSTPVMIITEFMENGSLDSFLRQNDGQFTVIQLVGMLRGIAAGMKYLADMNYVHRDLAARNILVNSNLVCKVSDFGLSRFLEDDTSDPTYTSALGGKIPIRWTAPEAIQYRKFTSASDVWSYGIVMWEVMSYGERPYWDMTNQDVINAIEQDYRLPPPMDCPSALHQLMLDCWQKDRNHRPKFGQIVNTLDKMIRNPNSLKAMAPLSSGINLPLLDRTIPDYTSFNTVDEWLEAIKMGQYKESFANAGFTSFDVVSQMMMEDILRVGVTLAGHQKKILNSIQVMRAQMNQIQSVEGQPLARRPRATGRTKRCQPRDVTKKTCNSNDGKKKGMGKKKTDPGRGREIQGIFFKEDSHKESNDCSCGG
The experiment can be described thus: co-immunoprecipitation from HRMEC stimulated with dimeric or multimeric ephrin-B1/Fc, immunoblot.

Protocol: Ligand stimulation and immunoprecipitation of endogenous EphB receptors. Primary HRMEC were used at passages 3-6, as described (12). […] Ninety min prior to ligand stimulation, cells (2×10⁵cells/60 mm dish) were plated on Matrigel-(Collaborative Biomedical Products, Becton Dickinson, Bedford, Mass., as recommended) or fibronectin-coated (29) dishes. […] Cells were incubated with agonists at 37° C. for 10 min, or as described in the figure legends. Immunoprecipitations were conducted on either cell lysates (P19) or on Triticum vulgaris lectin affinity purified fractions of HRMEC (15) (needed to reduce the background from Matrigel). Precipitated proteins were analyzed by immunoblot (15).

B1: endogenous EphB1 receptor of human endothelial cells (HRMEC; HUVEC) (receptor, UniProt P54762 18-984, looked up)
chain: MEETLMDTRTATAELGWTANPASGWEEVSGYDENLNTIRTYQVCNVFEPNQNNWLLTTFINRRGAHRIYTEMRFTVRDCSSLPNVPGSCKETFNLYYYETDSVIATKKSAFWSEAPYLKVDTIAADESFSQVDFGGRLMKVNTEVRSFGPLTRNGFYLAFQDYGACMSLLSVRVFFKKCPSIVQNFAVFPETMTGAESTSLVIARGTCIPNAEEVDVPIKLYCNGDGEWMVPIGRCTCKPGYEPENSVACKACPAGTFKASQEAEGCSHCPSNSRSPAEASPICTCRTGYYRADFDPPEVACTSVPSGPRNVISIVNETSIILEWHPPRETGGRDDVTYNIICKKCRADRRSCSRCDDNVEFVPRQLGLTECRVSISSLWAHTPYTFDIQAINGVSSKSPFPPQHVSVNITTNQAAPSTVPIMHQVSATMRSITLSWPQPEQPNGIILDYEIRYYEKEHNEFNSSMARSQTNTARIDGLRPGMVYVVQVRARTVAGYGKFSGKMCFQTLTDDDYKSELREQLPLIAGSAAAGVVFVVSLVAISIVCSRKRAYSKEAVYSDKLQHYSTGRGSPGMKIYIDPFTYEDPNEAVREFAKEIDVSFVKIEEVIGAGEFGEVYKGRLKLPGKREIYVAIKTLKAGYSEKQRRDFLSEASIMGQFDHPNIIRLEGVVTKSRPVMIITEFMENGALDSFLRQNDGQFTVIQLVGMLRGIAAGMKYLAEMNYVHRDLAARNILVNSNLVCKVSDFGLSRYLQDDTSDPTYTSSLGGKIPVRWTAPEAIAYRKFTSASDVWSYGIVMWEVMSFGERPYWDMSNQDVINAIEQDYRLPPPMDCPAALHQLMLDCWQKDRNSRPRFAEIVNTLDKMIRNPASLKTVATITAVPSQPLLDRSIPDFTAFTTVDDWLSAIKMVQYRDSFLTAGFTSLQLVTQMTSEDLLRIGITLAGHQKKILNSIHSMRVQISQSPTAMA
notes: whole, on cells; In the co-precipitation entries the receptor was tyrosine phosphorylated after stimulation of the cells; also called ELK
With B1, the binding result was “no binding”.
